# Data published in patent publication US20100273979A1 (Affibody, published 2010).
# Target: T1, rat serum albumin (rat, UniProt P02770 25-608)
# T1 construct: Control coat in the screening ELISA; also called RSA
# Assay: method not stated (unpublished results); unpublished results; method and construct not stated
# T1 sequence (P02770 25-608 limits assumed): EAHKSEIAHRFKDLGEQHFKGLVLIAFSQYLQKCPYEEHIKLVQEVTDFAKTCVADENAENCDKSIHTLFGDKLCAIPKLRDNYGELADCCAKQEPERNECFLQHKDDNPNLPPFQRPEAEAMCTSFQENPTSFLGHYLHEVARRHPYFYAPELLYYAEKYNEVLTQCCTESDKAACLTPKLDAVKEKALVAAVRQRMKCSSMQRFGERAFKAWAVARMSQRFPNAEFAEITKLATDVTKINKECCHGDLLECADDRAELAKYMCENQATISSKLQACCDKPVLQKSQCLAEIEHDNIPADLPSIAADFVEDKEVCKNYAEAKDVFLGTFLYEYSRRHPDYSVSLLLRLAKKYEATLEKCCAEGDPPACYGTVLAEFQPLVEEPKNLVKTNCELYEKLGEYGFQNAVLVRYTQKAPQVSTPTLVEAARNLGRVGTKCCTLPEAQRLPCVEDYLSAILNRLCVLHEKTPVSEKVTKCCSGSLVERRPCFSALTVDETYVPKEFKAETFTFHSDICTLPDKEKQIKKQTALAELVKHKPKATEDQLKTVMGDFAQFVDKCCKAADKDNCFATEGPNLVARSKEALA
binder,measurement,value
LAEAKVLANRELDKYGVSDYYKNLINNAKTVEGVKALIDEILAALP (other) [ABDwt (construct not stated; unpublished results)],Kd,0.07 nM
